Measurements published in publication PMC3506534, “LL-37 Induces Polymerization and Bundling of Actin and Affects Actin Structure” (PLoS ONE, 2012).
Where two headings read alike, the source gives them in different places. One block for each compound: values may come before it. No end group written: not given here.

Assays:
[1] = system: LL-37-induced Mg-F-actin bundles; test: Kinetics of dissociation of LL-37-induced Mg-F-actin bundles (light scattering); type: biochemical, rabbit; conditions: 200 mM NaCl; 4 µM MgF-actin bundled by 9 µM LL-37; 450 nm
Protocol: Bundling of MgF-actin was followed by increase in light scattering [20]. The time course of light scattering changes was also measured in a PTI spectrofluorometer, with both excitation and emission wavelengths adjusted to 450 nm. All fluorescence and light scattering measurements were carried out at 22°C.
This was followed by the addition of 6 µM DNase1, cofilin, or 200 mM NaCl. Bundling and dissociation was monitored as a change in light scattering.
This was followed by the addition of 6 µM DNase1, 6 µM cofilin, or 200 mM NaCl (thick arrow). Bundling and dissociation were followed as an increase and decrease in light scattering, respectively, measured at 450 nm. Presented data are representative of three independent experiments.

Mg-F-actin [2] = biological target: T1, Mg-F-actin (Oryctolagus cuniculus, UniProt P68135); test: Extent of Mg-F-actin bundling by low speed sedimentation; type: biochemical, rabbit; conditions: for EC50: read-out: concentration for half maximal bundling
T1 construct: CaATP-G-actin was prepared from acetone dried powder derived from the back and leg muscles of rabbit by the method of Spudich and Watt; from tissue; host or cells: rabbit back and leg skeletal muscle (acetone dried powder)
Protocol: (§1) CaATP-G-actin was prepared from acetone dried powder derived from the back and leg muscles of rabbit by the method of Spudich and Watt that even without gel filtration yields highly homogeneous actin in purity greater than 90%. CaATP-G-actin was stored in a buffer containing 5 mM TrisHCl, 0.2 mM CaCl2, 0.2 mM ATP, 0.5 mM β-mercaptoethanol, pH 8.0 (CaATP-G-buffer). MgATP-G-actin was obtained by incubating CaATP-G-actin with 0.2 mM EGTA and 0.1 mM MgCl2 at room temperature for 5 min. MgATP-G-actin was diluted for further treatments in MgATP-G-buffer containing 5 mM MOPS, 0.1 mM MgCl2, 0.2 mM EGTA, 0.2 mM ATP and 0.5 mM DTT, pH 7.4. MgF-actin was polymerized from MgATP-G-actin or CaATP-G-actin by 30 min incubation with 2 mM MgCl2 at room temperature. The concentration of unlabeled rabbit skeletal muscle α-G-actin was determined spectrophotometrically using the extinction coefficients E^1% 290 = 11.5 cm^−1. (The optical density of actin was measured in the presence of 0.5 M NaOH, which shifts the maximum of absorbance from 280 nm to 290 nm). Molecular masses of skeletal actin, yeast cofilin, hen-lysozyme and LL-37 were assumed to be 42 kDa, 15.9 kDa, 14.3 kDa and 4.5 kDa respectively.
After addition of polycations, actin samples were centrifuged at 20,800×g at 4°C for 8 min (in an Eppendorf centrifuge). The supernatants were run using SDS-PAGE and analyzed by densitometry using the TINA 2.07d software.
Figure 3 LL-37, scrambled LL-37 and lysozyme induced bundle formation of Mg-F-actin at low and physiological (100 mM NaCl) ionic strength. (A) Kinetics of LL-37-induced bundle formation: LL-37 (2–8 µM) was added to MgF-actin (2 µM) and bundle formation was followed as an increase in light scattering at 350 nm. Presented data are representative of three independent experiments. (B) Extent of LL-37 and lysozyme induced bundle formation: LL-37 or lysozyme (0.5–9 µM) were added to Mg-F-actin (4 µM). Samples were centrifuged at 20,800×g, for 8 min and the supernatants were analyzed by SDS-PAGE and densitometry. (C) Extent of LL-37 and scrambled LL-37 induced bundle formation: LL-37 or scrambled LL-37 (2–14 µM) were added to MgF-actin (4 µM) and bundle formation was measured as in (B). The presented data are mean and standard deviation of three independent experiments in (B) and (C).

[3] = gelsolin; ref [6]; cited from earlier work
Source text: LL-37-induced actin polymerization and bundling was chosen as the subject of this study. LL-37 is a 37 amino acid polycationic peptide with 6 net positive charges and is the only known member in human of the cathelicidin family of host defense peptides. In addition to its antimicrobial activity, the host defense activities of LL-37 include chemoattraction, cytokine release, tissue regeneration, inhibition of immunostimulation and apoptosis,[26]. […] There, it increases the F-actin content in the cyt ...

[4] = gelsolin; ref [30]; cited from earlier work
Source text: (§2) Bundles of actin filaments are major contributors to the viscosity of sputum in the airways of cystic fibrosis patients. LL-37, which also has been found in the sputum, may contribute to actin bundle formation. […] Here, we studied the effect of cofilin [39] and DNase1 on the stability of LL-37-induced bundles.

[5] = system: LL-37-induced Mg-F-actin bundles; conditions: gelsolin; ref [38]; cited from earlier work
Source text: as §2

MgATP-G-actin [6] = biological target: T2, MgATP-G-actin (Oryctolagus cuniculus, UniProt P68135); test: Polymerization of MgATP-G-actin at low ionic strength (pyrene fluorescence); type: biochemical, rabbit; conditions: 2 µM MgATP-G-actin, 10% pyrene labeled; low ionic strength MgATP-G-buffer pH 7.4; 22°C; representative of three independent experiments
T2 construct: CaATP-G-actin was prepared from acetone dried powder derived from the back and leg muscles of rabbit by the method of Spudich and Watt; from tissue; host or cells: rabbit back and leg skeletal muscle (acetone dried powder)
Protocol: as §1, with “MgF-actin was polymerized from MgATP-G-actin or CaATP-G-actin by 30 min incubation with 2 mM MgCl2 at room temperature.” left out, “Molecular masses of skeletal actin, yeast cofilin, hen-lysozyme and LL-37 were assumed to be 42 kDa, 15.9 kDa, 14.3 kDa and 4.5 kDa respectively.” left out
(§3) Labeling of Mg-F-actin at Cys-374 with pyrene maleimide was carried out according to Kouyama and Mihashi with some modifications. […] The concentration of modified actin was determined by the procedure of Bradford using unmodified actin as a standard. The extent of labeling, which was measured by using pyrene extinction coefficient E344 nm = 22000 cm^−1M^−1, was ∼100%. […]

MgATP-G-actin [7] = biological target: T2, MgATP-G-actin; test: Effect on MgCl2- or NaCl-induced polymerization of MgATP-G-actin (pyrene fluorescence); type: biochemical, rabbit; conditions: 4 µM LL-37 or lysozyme added simultaneously with salt; 2 µM MgATP-G-actin, 10% pyrene labeled; 22°C
Protocol: as §1, with “MgF-actin was polymerized from MgATP-G-actin or CaATP-G-actin by 30 min incubation with 2 mM MgCl2 at room temperature.” left out, “Molecular masses of skeletal actin, yeast cofilin, hen-lysozyme and LL-37 were assumed to be 42 kDa, 15.9 kDa, 14.3 kDa and 4.5 kDa respectively.” left out
as §3

Mg-F-actin [8] = biological target: T1, Mg-F-actin; test: NaCl concentration dependent stability of Mg-F-actin bundles (low speed sedimentation); type: biochemical, rabbit; conditions: 4 µM MgF-actin bundled by 6 µM lysozyme or 10 µM sLL-37; 10 min room temperature
Protocol: as §1, with “MgF-actin was polymerized from MgATP-G-actin or CaATP-G-actin by 30 min incubation with 2 mM MgCl2 at room temperature.” left out, “Molecular masses of skeletal actin, yeast cofilin, hen-lysozyme and LL-37 were assumed to be 42 kDa, 15.9 kDa, 14.3 kDa and 4.5 kDa respectively.” left out
After addition of polycations, actin samples were centrifuged at 20,800×g at 4°C for 8 min (in an Eppendorf centrifuge). The supernatants were run using SDS-PAGE and analyzed by densitometry using the TINA 2.07d software. […]
Figure 4 NaCl concentration dependent bundling of MgF-actin by LL-37, lysozyme and sLL-37. […] The supernatants were analyzed by SDS-PAGE and densitometry. […]

Mg-F-actin [9] = biological target: T1, Mg-F-actin; conditions: lysozyme; ref [20]; cited from earlier work
Protocol: Bundling kinetics of MgF-actin by LL-37, lysozyme and scrambled LL-37 were studied by increase in light scattering and the extent of bundling was determined using low speed centrifugation. The bundling of MgF-actin by LL-37 is also shown by electron microscopy (Figure S1). Mg-F-actin bundle formation was very fast both with LL-37 (Figure 3A) and lysozyme. The extent of bundling was dependent on the concentration and the nature of the polycation used (Figure 3B). At low ionic strength more than 50% of Mg-F-actin was bundled upon addition of lysozyme (1 µM) to Mg-F-actin (4 µM). A similar ...

Compound: [Cl-].[Na+] [NaCl]
rate and completeness of dissociation [1]: complete and very fast

MgF-actin bundled (Mg-F-actin [2]; sLL-37 10 µM, 4 µM MgF-actin, low ionic strength): more than 60%
Compound: GLKLRFEFSKIKGEFLKTPEVRFRDIKLKDNRISVQR [Scrambled LL-37]

Compound: Gelsolin
effect on LL-37 antibacterial activity [3]: restore
effect on sputum viscosity [4]: significantly reduce the viscosity of sputum
dissociation of LL-37-induced actin filament bundles [5]: dissociate LL-37-induced actin filament bundles

concentration giving polymerization of MgATP-G-actin (MgATP-G-actin [6]): 1 µM
effect on polymerization induced by 2 mM MgCl2 or 100 mM NaCl (MgATP-G-actin [7]): no inhibitory effect
EC50 (Mg-F-actin [2]; 4 µM Mg-F-actin, low ionic strength): 1 µM
EC50 (Mg-F-actin [2]; 4 µM Mg-F-actin, physiological ionic strength (100 mM NaCl)): 6 µM
Mg-F-actin bundled (Mg-F-actin [2]; lysozyme 1 µM, 4 µM Mg-F-actin, low ionic strength, 20,800×g 8 min, SDS-PAGE densitometry, three independent experiments): more than 50%
NaCl concentration at which bundle stability was decreased (Mg-F-actin [8]): 50 mM
NaCl concentration in which bundles completely dissociated (Mg-F-actin [8]): 150 mM
Compound: lysozyme: Hen lysozyme, antibacterial polycationic protein, 14.3 kDa, from Sigma
rate of Mg-F-actin bundle formation (Mg-F-actin [9]): very fast
